{
  "source": "paper PMC7349027",
  "experiment_in_all_cases": "non-reducing SDS-PAGE with Western blot",
  "key": {"[1]": {"molecular_target": "truncated gp120 from the HIV-1 clade J isolate (gp120t-J) (HIV-1 clade J)"}, "[2]": {"molecular_target": "soluble truncated gp120 from the CRF02_AG isolate (Sgp120t-AG) (HIV-1 clade CRF02_AG)"}, "[3]": {"molecular_target": "truncated gp120 from the HIV-1 clade B isolate (gp120t-B) (HIV-1 clade B)"}, "[4]": {"molecular_target": "truncated gp120 from the HIV-1 clade C isolate (gp120t-C) (HIV-1 clade C)"}},
  "data": [
    {"substance": "truncated gp120 from the HIV-1 clade J isolate (gp120t-J) (domain or fragment)", "values": [
      {"measurement": "stoichiometry N", "setting": "[1]", "value": 2}
    ]},
    {"substance": "soluble truncated gp120 from the CRF02_AG isolate (Sgp120t-AG) (domain or fragment)", "values": [
      {"measurement": "stoichiometry N", "setting": "[2]", "value": 2}
    ]},
    {"substance": "truncated gp120 from the HIV-1 clade B isolate (gp120t-B) (domain or fragment)", "values": [
      {"measurement": "stoichiometry N", "setting": "[3]", "value": 2}
    ]},
    {"substance": "truncated gp120 from the HIV-1 clade C isolate (gp120t-C) (domain or fragment)", "values": [
      {"measurement": "stoichiometry N", "setting": "[4]", "value": 2}
    ]}
  ]
}
